± gives the half width of the 95% confidence interval.
Columns and labels:
[1] = folding stability dG unfold from trypsin proteolysis; higher = more stable
Method in brief: (§1)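 How resistant each design was to proteolysis was captured as K50, inferred by Bayesian fitting of sequencing counts. Unfolding free energy was then derived relative to a sequence-predicted unfolded-state K50 and a shared folded-state K50, per protease or combined. Digestion used trypsin and chymotrypsin at 11 threefold-diluted concentrations plus a no-protease condition, on mini-proteins under 80 residues without cysteine in a PA-tagged cDNA display construct. Designs were kept only when AlphaFold2 dimer inter-PAE was above 15.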

[2] = folding stability dG unfold (combined trypsin and chymotrypsin); higher = more stable
Method in brief: as §1

[3] = folding stability dG unfold from chymotrypsin proteolysis; higher = more stable
Method in brief: as §1

Row | Sequence | folding stability dG unfold [1] [kcal/mol] | folding stability dG unfold [2] [kcal/mol] | folding stability dG unfold [3] [kcal/mol]
1 | SAEKEYKVKVKVKIEIVELSEEELENLPPGALVIEVDGKLYLMRIEVEEVEVEEVPEEPEVDEETGELLSAG [r14_126_TrROS_Hall] | 2.28 ± 0.16 | 3.33 ± 0.17 | 3.86 ± 0.1
2 | SAGGSAGGSFPLDEIRKFAKKLGNPFIEIEPVKPHVYRIKIYNKKNGKKKEFPIYLDEDGKIMSAGGSAGGS [r12_170_TrROS] | 0.992 ± 0.053 | 1.16 ± 0.13 | 1.27 ± 0.15
3 | SAGGSAGSGFEEEAAAAFAASAGAMTLTVVEREPDSYTVATVTRTPGTGAPTVTVTTLSPETLAAASAGGSA [r15_156_JUSTAS] | 0.904 ± 0.048 | 0.701 ± 0.12 | 0.425 ± 0.13
4 | SAGGSAGGSLRLRVTFTVTVTFLDGNRLRPAKVEITVEIELEPIPPELLRPRPLPGDKLEYDLSAGGSAGGS [r12_1031_TrMRF] | 2.72 ± 0.17 | 3.16 ± 0.25 | 3.29 ± 0.045
5 | SAGGSAGGSAGGFNIEVVPGEPGWVIKIEFPDHPITAFVDPEDGKLWIYNPDNGMIFPLSAGGSAGGSAGGS [r10_434_TrROS] | 2.2 ± 0.042 | 2.03 ± 0.077 | 1.78 ± 0.084
6 | SAGGSAGGSAGGPPDLVKVRFIKVSVKLKEVKENPNGEKEMKLEMKIEEVEVTVRKDDLSAGGSAGGSAGGS [r10_524_TrROS_Hall] | 2.61 ± 0.21 | 2.71 ± 0.15 | 2.71 ± 0.12
7 | SAGGSAGGSAGKKKKKPKPIVLVIKVKTKEEAEKLAEKLKELGFKVEIVEKKDGYLVIKLSAGGSAGGSAGG [r17_323_TrROS_Hall] | 2.11 ± 0.12 | 3.39 ± 0.18 | 3.8 ± 0.15
8 | SAGATTTTTTTNPADDTTVTTTTTTTGNTSTVTSTSTSGSTSTLTTTTVTFTSPTTTTTTTTTTPVPSSAGG [r19_292_JUSTAS] | 0.679 ± 0.03 | 0.264 ± 0.074 | -0.45 ± 0.22
9 | SAGGSAKKTLKIKVKTPKGGLKTIEIPDSVKKIDIIPGKDYVKIIIYNPKTKKKIELPPFKVIEISSAGGSA [r15_133_TrMRF] | 1.26 ± 0.047 | 1.79 ± 0.086 | 2.01 ± 0.031
10 | SAGGSAGGSAGGMKITKVEVFERPDGYLVVKMEIELTNENGEKVKLELVFVFKPGEVIESAGGSAGGSAGGS [r10_1183_TrROS_Hall] | 3 ± 0.15 | 4.72 ± 0.31 | 4.96 ± 0.2
11 | SAGGMETIELEIEITDEDGNTYRIRVTIERKDGKLVIKIEVEAETPEERERARELAEELARRLEEELSAGGS [r8_416_TrROS_Hall] | 4.1 ± 0.19 | 4.94 ± 0.6 | 5.3 ± 0.35
12 | SAGGSAGGSASSMVKPEKLPNGEKVVVTTETVPDPNSDTPVTVVTTEIYKGDKIVEVKTTLVSAGGSAGGSA [r18_185_JUSTAS] | 0.339 ± 0.038 | 0.439 ± 0.13 | 0.384 ± 0.12
13 | SAGGSAGPMSVKEYEFEAVVPPGEEEAWVEEYIKKEFKSKIVKIEVKREKLPDGTYRVPVKITVKESAGGSA [r15_138_JUSTAS] | 0.433 ± 0.029 | 0.775 ± 0.079 | 0.998 ± 0.12
14 | KIEIKVHPDGTLLIKAPLELIDLLIKLLKEKGYDAKILKIDPENGYVLIPVKPKPPPIPKPTPEELLKALFS [r1_78_TrMRF] | 2.29 ± 0.096 | 3.35 ± 0.2 | 3.78 ± 0.1
15 | SAGGSAGGSAGYKPGEVVYIEVEDPETGKSLKVPVKVPENMTPEQAKKLAEEAAKKYREGSAGGSAGGSAGG [r11_355_TrMRF] | 1.57 ± 0.082 | 2.02 ± 0.16 | 2.22 ± 0.095
16 | MKTITITVTDAPPGTVTIRVEIEREDGSTIEIEKEITVKPGDTITITLKEDEPYKIKKIEIYHNGKKIEITS [r1_70_TrROS_Hall] | 2.58 ± 0.15 | 3.76 ± 0.33 | 3.81 ± 0.1
17 | STTEVEVTPLPGNSTLVTTTTTTPEFDPANGTIRYTSETTTTTITYTPGTTEPTTTTTTTTTTTTIPATTSA [r9_140_JUSTAS] | 0.639 ± 0.062 | 0.814 ± 0.14 | 0.813 ± 0.12
